# Experimental data taken from CN111484554A (YINGWEIFUSAI BIOTECHNOLOGY CO LTD, dated 2020).
# Numbering of substitutions follows the chain as printed.
# B1: 11B6嵌合抗体 (antibody, human IgG4 S228P, kappa, V domains shown)
# VH: QVQLQQPGAELVRPGASVKLSCKASGYTFTSYWINWVKQRPGQGLEWIGNIYPSDSYTNYNQKFKDKATLTVDKSSSTAYMQLSSPTSEDSAVYYCTRESQTGTGYYAMDYWGQGTSVTVSS
# VL: DIQMTQTTSSLSASLGDRVTISCRASQDISNYLNWYQQKPDGTVKLLIYYTSRLHSGVPSRFSGSGSGTDYSLTISNLEQEDIATYFCQQGNTLPWTFGGGTKLEIKR
# notes: Mouse 11B6 variable regions on a human IgG4 constant region and a human kappa constant region; also called 11B6 chimeric antibody
# B2: 人源化11B6-hu-a抗体 (antibody, human IgG4 S228P, kappa, V domains shown)
# VH: QVQLVQSGAEVKKPGSSVKVSCKASGYTFTSYWINWVRQAPGQGLEWIGNIYPSDSYTNYNQKFQGRVTITADESTSTAYMELSSLRSEDTAVYYCTRESQTGTGYYAMDYWGQGTLVTVSS
# VL: DIQMTQSPSSLSASVGDRVTITCQASQDISNYLNWYQQKPGKAPKLLIYYTSRLHSGVPSRFSGSGSGTDFTFTISSLQPEDIATYYCQQGNTLPWTFGGGTKLEIKR
# B3: 人源化11B6-hu-b抗体 (antibody, human IgG4 S228P, kappa, V domains shown)
# VH: B2 VH with S16A, I70M, A72R, E74T, A79V
# VL: B2 VL with Q24R, F73L, I83F, G100Q, L104V
# Molecular target: T1, 4-1BB(24-180)-His重组蛋白 (4-1BB胞外段24-180位氨基酸, C端6个His) (UniProt Q07011 24-180)
# T1 construct: range 24-180; Human is implied by the human therapeutic context; The monomer was used for immunisation and the ELISA screen; also called 4-1BB-His蛋白; 4-1BB蛋白
# Experiment: SPR, antibody captured on Protein A chip, 4-1BB protein 6.25-400 nM as analyte
row,Binder,Kd
1,B1,3.75 nM
2,B2,5.84 nM
3,B3,9 nM
